Assay results as given in patent US20190106487A1 (Sanofi, published 2019).

T1: mIL1RAcP-Fc (murine, UniProt Q61730 21-359)
T1 construct: also called P013_04; P013-04
T1 sequence (looked up): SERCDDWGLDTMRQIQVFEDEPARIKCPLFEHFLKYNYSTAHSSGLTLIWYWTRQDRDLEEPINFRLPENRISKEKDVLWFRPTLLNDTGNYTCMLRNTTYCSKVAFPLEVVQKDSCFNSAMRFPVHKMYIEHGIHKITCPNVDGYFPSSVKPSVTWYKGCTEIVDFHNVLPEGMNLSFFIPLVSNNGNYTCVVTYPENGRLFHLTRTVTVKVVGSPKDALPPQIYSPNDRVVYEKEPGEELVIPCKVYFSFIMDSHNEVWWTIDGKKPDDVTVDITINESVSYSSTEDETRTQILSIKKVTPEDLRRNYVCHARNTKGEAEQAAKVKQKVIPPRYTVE

T2: rhIL-1RAcP/Fc Chimera (human, UniProt Q9NPH3 21-359)
T2 construct: also called P013_03; P013-03
T2 sequence (looked up): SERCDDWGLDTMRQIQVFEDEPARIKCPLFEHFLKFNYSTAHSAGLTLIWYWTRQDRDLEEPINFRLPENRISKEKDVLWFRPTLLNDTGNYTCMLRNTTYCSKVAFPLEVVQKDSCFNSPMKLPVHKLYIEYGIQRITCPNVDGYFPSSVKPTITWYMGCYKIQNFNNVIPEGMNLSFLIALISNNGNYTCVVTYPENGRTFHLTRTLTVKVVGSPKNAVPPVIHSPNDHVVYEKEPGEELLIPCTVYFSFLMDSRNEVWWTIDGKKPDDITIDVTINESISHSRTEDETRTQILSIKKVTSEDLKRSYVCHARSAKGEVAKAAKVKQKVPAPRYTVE

T3: human IL-1RAcP on 293T/17-FR cells (human, UniProt Q9NPH3 21-570)
T3 sequence (looked up): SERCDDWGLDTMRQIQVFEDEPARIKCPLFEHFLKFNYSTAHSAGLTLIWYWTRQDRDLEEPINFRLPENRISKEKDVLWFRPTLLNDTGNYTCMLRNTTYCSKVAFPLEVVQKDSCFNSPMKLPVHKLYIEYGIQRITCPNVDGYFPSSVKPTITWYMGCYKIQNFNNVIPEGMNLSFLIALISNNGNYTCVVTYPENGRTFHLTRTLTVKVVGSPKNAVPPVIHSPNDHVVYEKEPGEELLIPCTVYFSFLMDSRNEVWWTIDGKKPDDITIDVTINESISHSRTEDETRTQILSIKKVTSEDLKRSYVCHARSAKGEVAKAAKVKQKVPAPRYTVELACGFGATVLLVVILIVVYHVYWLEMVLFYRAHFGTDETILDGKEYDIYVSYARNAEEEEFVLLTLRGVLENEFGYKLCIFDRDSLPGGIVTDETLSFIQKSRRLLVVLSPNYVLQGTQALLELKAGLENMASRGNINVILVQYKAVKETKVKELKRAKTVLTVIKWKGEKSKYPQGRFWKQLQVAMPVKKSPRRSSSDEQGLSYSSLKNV


Assays:
mIL1RAcP-Fc = biological target: T1, mIL1RAcP-Fc; test: ELISA, primary supernatant, coated mu-IL-1RAcP-Fc
rhIL-1RAcP/Fc Chimera [1] = biological target: T2, rhIL-1RAcP/Fc Chimera; test: ELISA, recombinant purified mAb
rhIL-1RAcP/Fc Chimera [2] = biological target: T2, rhIL-1RAcP/Fc Chimera; test: ELISA, primary supernatant, coated hu-IL-1RAcP-Fc
How it was run: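 Plates coated with 0.5 μg/mL Fc-tagged human IL-1RAcP; rabbit B-cell supernatant antibodies detected by peroxidase anti-rabbit IgG Fab2 and TMB, absorbance 450/620 nm. Parallel IL12Rβ1-Fc coating served as counterscreen to exclude tag binders.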

[3] = biological target: T3, human IL-1RAcP on 293T/17-FR cells; test: cell-based or functional assay

Row | Binder | mu-IL1RaP ELISA (OD) (mIL1RAcP-Fc) | EC50 (rhIL-1RAcP/Fc Chimera [1]) | hu-IL1RaP ELISA (OD) (rhIL-1RAcP/Fc Chimera [2]) | functional reporter gene assay (% inhibition), 0.04 µg/mL mAb [3] | functional reporter gene assay (% inhibition), 0.2 µg/mL mAb [3] | functional reporter gene assay (% inhibition), 1 µg/mL mAb [3] | functional reporter gene assay (% inhibition), 5 µg/mL mAb [3] | primary supernatant functional assay (% inh.), NF-kB luciferase reporter [3]
1 | P013.S.01.B.H05 (antibody, V domains shown, rabbit monoclonal antibody; also called P013.A.00109.F08) VH: LEQSGGGAEGGLVKPGGSLELCCKASGFSLSNSYWICWVRQAPGKGLEWIGCIYVGSSGSTYYASWVNGRFTLSRDIDQSTGCLQLNSLTAADTAIYYCARDGATSTSGHLFELWGQGTLVTVSS VL: ALVMTQTPSPVSAAVGGTVTINCQASEDIYSNLAWFQQKPGQPPKLLIYRASTLASGVPSRFSGSGSGTEFTLTISGVQSDDAATYYCLGIYTYISADGSLYNAFGGGTEVVVK | 0.4 OD | 0.485 µg/mL | 3.3 OD | 20% | 47% | 88% | 90% | 95%
2 | P013.S.01.B.H06 (antibody, V domains shown, rabbit monoclonal antibody; also called P013.A.00086.B03) VH: LEQSGGGGEGGLVKPGGSLELCCKASGFSLSSSYWICWVRQAPGKGLEWIGCIYVGSSGSTYYASWVSGRFTLSRDIDQSTGCLQLNSLTAADTAMYYCARDIYGSTNGYDLWGQGTLVTVSS VL: ALVMTQTPSPVSAAVGGTVTINCQASEDIYSNLAWFQQKPGQPPKLLIYQASKLASGVPSRFSGSGSGTEFTLTISGLQSDDVATYYCLGVGTYISGDGSLDNAFGGGTEVVVK | 0 OD | 0.064 µg/mL | 3.6 OD | 18% | 47% | 88% | 96% | 91%
3 | P013.S.01.B.A06 (antibody, V domains shown, rabbit monoclonal antibody; also called P013.A.00133.B12) VH: QSLEESGGRLVTPGTPLTLSCKVSGFSLSSYDMSWVRQTPGKGLEWIGTIYIGGTTAYASWPKGRFTISKTSTTVDLKITSPTKEDTATYFCARLQGANYYNSLALWGQGTLVTVSS VL: DVVMTQTPASVSEPVGGTVTIKCQASQSIYSFLSWYQQKPGQPPKLLIYAASDLESGVPSRFSGSGYGTEFTLTISDLESADAATYYCQCNYIIDYGAFGGGTEVVVK | 0 OD | 0.027 µg/mL | 3.5 OD | 14% | 85% | 99% | 100% | 96%
4 | P013.S.02.B.A05 (antibody, V domains shown, rabbit monoclonal antibody; also called P013.A.00031.D11) VH: QEQLVESGGGLVQPEGSLTLTCQASGFTFSSYYVICWVRQAPGKGLEWIACIGTGDGLTYYASWAKGRFTISKTSSTTVTLQMTSLTAADTATYFCARDRYATVSGILNLWGPGTLVTVSS VL: DVVMTQTPASVEAAVGGTVTIKCQASQNIYSNCAWYQQKLGQRPKLLIYYVSTLESGVPSRFEGSGYGTEFTLTISDLQSADAATYYCQYTYDSSSSTSWAFGGGTEVVVK | 0 OD | 0.362 µg/mL | 3.6 OD | -16% | 42% | 47% | 48% | 80%
